Biological target: tubulins (tubulin dimers; paclitaxel-stabilized microtubules)
Test: co-sedimentation; different concentrations of the protein added to paclitaxel-stabilized microtubules (prepolymerized from 8 uM tubulins in Fig 5A, 5 uM in S7 Fig) in PEMT buffer (1 mM MgCl2, 1 mM EGTA, 100 mM PIPES, 20 uM taxol, pH 6.9); 25 C 30 min; 100,000g 30 min; SDS-PAGE, Coomassie
Conditions: both partners purified

Sequence of tubulins (tubulin dimers; paclitaxel-stabilized microtubules) (chain, as listed by the source, chain 1 of 2): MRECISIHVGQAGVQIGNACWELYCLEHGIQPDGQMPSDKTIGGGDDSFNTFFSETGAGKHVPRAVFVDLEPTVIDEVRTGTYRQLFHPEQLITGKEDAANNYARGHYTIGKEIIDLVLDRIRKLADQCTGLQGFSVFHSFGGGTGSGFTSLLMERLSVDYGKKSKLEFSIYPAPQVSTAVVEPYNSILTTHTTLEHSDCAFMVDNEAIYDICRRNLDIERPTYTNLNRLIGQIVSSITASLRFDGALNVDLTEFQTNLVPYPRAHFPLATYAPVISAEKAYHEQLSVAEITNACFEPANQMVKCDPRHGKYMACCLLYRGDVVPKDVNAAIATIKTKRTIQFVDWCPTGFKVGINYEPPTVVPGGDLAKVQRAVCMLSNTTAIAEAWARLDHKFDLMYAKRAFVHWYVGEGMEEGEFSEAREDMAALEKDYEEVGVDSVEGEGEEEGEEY
Sequence of tubulins (tubulin dimers; paclitaxel-stabilized microtubules) (chain, as listed by the source, chain 2 of 2): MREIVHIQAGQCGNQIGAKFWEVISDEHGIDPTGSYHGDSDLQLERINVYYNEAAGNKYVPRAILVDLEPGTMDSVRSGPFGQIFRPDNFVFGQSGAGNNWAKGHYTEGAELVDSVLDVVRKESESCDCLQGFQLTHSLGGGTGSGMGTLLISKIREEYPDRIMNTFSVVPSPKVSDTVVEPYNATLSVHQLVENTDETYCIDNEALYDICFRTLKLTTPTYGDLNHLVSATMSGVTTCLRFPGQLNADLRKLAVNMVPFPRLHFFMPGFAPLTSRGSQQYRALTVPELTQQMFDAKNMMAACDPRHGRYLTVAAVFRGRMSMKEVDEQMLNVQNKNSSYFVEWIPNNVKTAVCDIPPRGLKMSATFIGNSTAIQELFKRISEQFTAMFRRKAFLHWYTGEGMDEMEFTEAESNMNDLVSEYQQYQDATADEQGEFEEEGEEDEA

B1: MBP-TCS1 (TRICHOME CELL SHAPE 1 fused to maltose binding protein) (natural protein, Arabidopsis thaliana, UniProt Q0WSY2 1-982, looked up)
chain: MDRKSWPWKKKSSEKTATVTEVVDQENGKKPSYIQISFDQYTNLNGLKDEVKSYEEKVTKLEDQIKDLDLKLSTANADIVAKEVLVKQHSKVAEEAVTGWEKAEAEASALKTHLETITLAKLTVEDRAAHLDGALKECMRQIRSLKEENEQKLHDVIATKTNQMDNLRAEFESRIGEYEEELLRCGAENDALSRSLQERSNMLMRISEEKSQAESEIEHLKNNIESCEREINTLKYETHVITKELEIRNEEKNMSMRSAEAANKQHLEGVKKIAKLEAECQRLRTLVRKKLPGPAALAQMKMEVESLGFGDHRQDHRQRRSPVRPSSPLMSPMSHMSQVSEFSLDNMQKFHKENDLLTERLLAMEEETKMLKEALAKRNSELQVSRNLCAKTANRLQTLEAQMMSKSPTKRGFEMPAEIFSRQNASNPPSMASMSEDGNEDARSVAGSLMSELSQSNKDKANAKIKKTESANQLELMDDFLEMEKLACLPNGSNANGSTDHSSADSDAEIPPATQLKKRISNVLQSLPKDAAFEKILAEIQCAVKDAGVKLPSKSHGANLNGLTEEKVIAMSNETTEEKVTIVEVITQELSDALSQIYQFVTYLSKEATACSENRTFSQKVQEFSTTFEGVLGKEKTLVDFLFDLSRVLVEASELKIDVLGFHTSTVEIHSPDCIDKVALPENKALQKDSSGEHYQNGCSQSSDSEIPDDCNGTSGYEPKLATCKFTTEEFEGLKLEKEKAESNLASCEADLEATKTKLQETEKLLAEVKSDLESAQKSNGMGETQLKCMVESYRSLETRSSELEIELTSLKGKIENLEDELHDEKENHREALAKCQELEEQLQRNNQNCPNCSVIEDDPKSKQDNELAAAAEKLAECQETILLLGKQLKSMCPQTEQVASSPSQEQQALNPEEEEYATSTNPQDSKLSSPSDKDTPSMNTMKSPVASKHRHTKSNSSSSSSGLTPEKHSRGFSRFFSTKAK
notes: TCS1, Arabidopsis thaliana, At1g19835, a 982-amino-acid coiled-coil protein; also called MBP-TCS1 fusion protein; source: E. coli Rosetta (DE3); bacterial lysate in the pull-downs
- stoichiometry N: ~0.38 M MBP-TCS1 per mole of tubulin dimers

Reference: paper PMC5074588, “TCS1, a Microtubule-Binding Protein, Interacts with KCBP/ZWICHEL to Regulate Trichome Cell Shape in Arabidopsis thaliana” (PLoS Genetics, 2016)
